Values of other authors as cited in article PMC3907174.

Target: RBP (Homo sapiens) (UniProt P02753)

Kd: 50 nM
Substance: STRA6 (from UniProt Q9BX79)
